# B1: EHEE_rd4_0086 (parent)
# chain: EIHIRTNGEEQARKVYKMLAKRNYDVKIEQHNGQWVVTAS
# B2: EHEE_rd2_0601 (parent)
# chain: TYTYKLTDEEASRRAEDEWRNRGYDVRVRNNNGTWEVEVR
# Variants of: B1
# Assay: folding stability dG (cDNA display proteolysis); higher = more stable
# Settings: PBS, room temperature
row,Variant,folding stability dG [kcal/mol]
1,EIHIRTNGEEQARKVYKMLAKRNYDVLIEQHNGQWVVTAS [K27L],1.12
2,EIHIRTNGEEQARKDYKMLAKRNYDVKIEQHNGQWVVTAS [V15D],-0.861
3,EIHIRTNGEEQARKSYKMLAKRNYDVKIEQHNGQWVVTAS [V15S],-0.033
4,EIHIRTNGEQQARKVYKMLAKRNYDVKIEQHNGQWVVTAS [E10Q],1.81
5,EIHIRTNGEEQARKVYKMLAKRNYDVKIEQHNFQWVVTAS [G33F],0.875
6,EIHIRTNGEEQARKVYKMLAKRNYDVKIEQHNHQWVVTAS [G33H],1.49
7,EIHIRTNGEEQARKVYKMLAKRNYDVKIEQHNVQWVVTAS [G33V],0.374
8,EIHIRTNGEEQARKVYKMLAKRNYDVKIEQHNKQWVVTAS [G33K],0.996
9,EIHIRTNGEEQARKVYKMLAKRNYDVKIEQHNAQWVVTAS [G33A],0.852
10,QIHIRTNGEEQARKVYKMLAKRNYDVKIEQHNGQWVVTAS [E1Q],2.17
11,MIHIRTNGEEQARKVYKMLAKRNYDVKIEQHNGQWVVTAS [E1M],2.29
12,AIHIRTNGEEQARKVYKMLAKRNYDVKIEQHNGQWVVTAS [E1A],2.08
13,RIHIRTNGEEQARKVYKMLAKRNYDVKIEQHNGQWVVTAS [E1R],2.29
14,WIHIRTNGEEQARKVYKMLAKRNYDVKIEQHNGQWVVTAS [E1W],2.55
15,EIHIRTNHEEQARKVYKMLAKRNYDVKIEQHNGQWVVTAS [G8H],2.21
16,EIHIRTNGEEQARKVYKMLAKRAYDVKIEQHNGQWVVTAS [N23A],1.69
17,EIHIRTNGEEQARKVYKMLAKRWYDVKIEQHNGQWVVTAS [N23W],2.36
18,EIHIRTNGEEQARKVYKMLAKRDYDVKIEQHNGQWVVTAS [N23D],1.33
19,EIHIRTNGEEQARKVYKMLAKRIYDVKIEQHNGQWVVTAS [N23I],0.912
20,EIHIRTNGEEQARKVYKMMAKRNYDVKIEQHNGQWVVTAS [L19M],1.27
21,EIHIRTNGEEQARKVYKMHAKRNYDVKIEQHNGQWVVTAS [L19H],-0.775
22,EIHIRTNGEEQARKVYKMAAKRNYDVKIEQHNGQWVVTAS [L19A],-0.32
23,EIHIRTNGEEQARKVYKMLAKQNYDVKIEQHNGQWVVTAS [R22Q],1.76
24,EIHIRTNGEEQARKVYKMLAKGNYDVKIEQHNGQWVVTAS [R22G],1.16
25,EIHIRTNGEEQARKVYKMLAKINYDVKIEQHNGQWVVTAS [R22I],1.31
26,EIHIRTNGEEQARKVYKWLAKRNYDVKIEQHNGQWVVTAS [M18W],2.61

row,Variant,folding stability dG [kcal/mol]
1,EIHIRTNGEEQARKVYKMLAKRNYDYKIEQHNGQWVVTAS [V26Y],-0.299
2,EIHIRTNGEEQARKVYKMLAKRNYDIKIEQHNGQWVVTAS [V26I],1.09
3,ETHIRTNGEEQARKVYKMLAKRNYDVKIEQHNGQWVVTAS [I2T],0.864
4,EEHIRTNGEEQARKVYKMLAKRNYDVKIEQHNGQWVVTAS [I2E],0.258
5,EIHIRTNGEEQARKVYKMLAKRNYDVKIEQHNGQTVVTAS [W35T],-0.759
6,EIHIRTNGEEQARKVYKMLAKRNYDVKIEQHNGQIVVTAS [W35I],-0.153
7,EIHIRTNGEEQARKVYKMLAKRNYDVKIEKHNGQWVVTAS [Q30K],1.88
8,EIHIRTNGEEQARKVYKMLAKRNYDVKIEYHNGQWVVTAS [Q30Y],2.3
9,EIHIRTNGEEQARKVYKMLAKRNYDVKIEFHNGQWVVTAS [Q30F],2.38
10,EIHIRTNGEEQARKVYKMLAKRNYDVKIENHNGQWVVTAS [Q30N],2.01
11,EIHIRTNGEEQARKVYKMLAKRNYDVKIEQHNGGWVVTAS [Q34G],1.58
12,EIHIRTNGEEQARKVYKMLAKRNYDVKIEQHNGYWVVTAS [Q34Y],2.55
13,EIHIRTNGEEQARKVYKMLAKRNYDVKIEQKNGQWVVTAS [H31K],2.04
14,EIHIRTNGEEQARKVYKMLAKRNYDVKIEQHNGQWVVHAS [T38H],1.64
15,EIHIRTNGEEQARKVYKMLAKRNYDVKIEQHNGQWVVGAS [T38G],0.134
16,EIHIRDNGEEQARKVYKMLAKRNYDVKIEQHNGQWVVTAS [T6D],-0.07
17,EIHIRINGEEQARKVYKMLAKRNYDVKIEQHNGQWVVTAS [T6I],2.02
18,EINIRTNGEEQARKVYKMLAKRNYDVKIEQHNGQWVVTAS [H3N],1.67
19,EIHIRTNGEEQARKVYKMLAKRNYDVKVEQHNGQWVVTAS [I28V],1.29
20,EIHIRTNGEEQARKVYKMLAKRNYDVKLEQHNGQWVVTAS [I28L],1.56
21,EIHITTNGEEQARKVYKMLAKRNYDVKIEQHNGQWVVTAS [R5T],1.97
22,EIHIMTNGEEQARKVYKMLAKRNYDVKIEQHNGQWVVTAS [R5M],1.98
23,EIHISTNGEEQARKVYKMLAKRNYDVKIEQHNGQWVVTAS [R5S],1.45
24,EIHIRTNGEEQWRKVYKMLAKRNYDVKIEQHNGQWVVTAS [A12W],0.477
25,EIHIRTNGEEQTRKVYKMLAKRNYDVKIEQHNGQWVVTAS [A12T],0.108
26,EIHIRTNGEEQARKVNKMLAKRNYDVKIEQHNGQWVVTAS [Y16N],-0.095

row,Variant,folding stability dG [kcal/mol]
1,EIHIRTNGEEQARKVSKMLAKRNYDVKIEQHNGQWVVTAS [Y16S],1.5
2,EIHIRTNGEEQARKVHKMLAKRNYDVKIEQHNGQWVVTAS [Y16H],1.03
3,EIHIRTNGEEQAVKVYKMLAKRNYDVKIEQHNGQWVVTAS [R13V],1.27
4,EIHIRTNGEEQASKVYKMLAKRNYDVKIEQHNGQWVVTAS [R13S],0.759
5,EIHIRTNGEEQARKVYKMLAKRNKDVKIEQHNGQWVVTAS [Y24K],1.25
6,EIHIRTNGEEQARKVYKMLAKRNIDVKIEQHNGQWVVTAS [Y24I],1.42
7,EIHIRTNGEEQARKVYKMLAKRNPDVKIEQHNGQWVVTAS [Y24P],0.856
8,EIHIRTNGEEQARKVYKMLAKRNYDVKIEQHNGQWTVTAS [V36T],1.39
9,EIHIRTNGEEQARKVYKMLAKRNYDVKIEQHNGQWFVTAS [V36F],2.06
10,EIHIRTNGEEQARKVYKMLWKRNYDVKIEQHNGQWVVTAS [A20W],1.46
11,EIHIRTNGEEQARKVYKMLKKRNYDVKIEQHNGQWVVTAS [A20K],2.43
12,EIHIRTIGEEQARKVYKMLAKRNYDVKIEQHNGQWVVTAS [N7I],1.69
13,EIHIRTKGEEQARKVYKMLAKRNYDVKIEQHNGQWVVTAS [N7K],1.77
14,EIHIRTNGEEQARAVYKMLAKRNYDVKIEQHNGQWVVTAS [K14A],1.86
15,EIHIRTNGEEQARIVYKMLAKRNYDVKIEQHNGQWVVTAS [K14I],1.82
16,EIHIRTNGEEQARRVYKMLAKRNYDVKIEQHNGQWVVTAS [K14R],2.12
17,EIHIRTNGEEQARLVYKMLAKRNYDVKIEQHNGQWVVTAS [K14L],1.91
18,EIHIRTNGEEQARWVYKMLAKRNYDVKIEQHNGQWVVTAS [K14W],2.35
19,EIHYRTNGEEQARKVYKMLAKRNYDVKIEQHNGQWVVTAS [I4Y],2.12
20,EIHMRTNGEEQARKVYKMLAKRNYDVKIEQHNGQWVVTAS [I4M],0.855
21,EIHIRTNGEEQARKVYNMLAKRNYDVKIEQHNGQWVVTAS [K17N],2.07
22,EIHIRTNGEEQARKVYIMLAKRNYDVKIEQHNGQWVVTAS [K17I],2.03
23,EIHIRTNGEEQARKVYYMLAKRNYDVKIEQHNGQWVVTAS [K17Y],1.99
24,EIHIRTNGEEQARKVYKMLAERNYDVKIEQHNGQWVVTAS [K21E],2
25,EIHIRTNGFEQARKVYKMLAKRNYDVKIEQHNGQWVVTAS [E9F],2.33
26,EIHIRTNGMEQARKVYKMLAKRNYDVKIEQHNGQWVVTAS [E9M],1.75

# Variants of: B2
# Assay: as above
# Settings: PBS, room temperature
row,Variant,folding stability dG [kcal/mol]
1,TYTYKLTDEEASRRAEDEWRNRGYDVRVRNNNGTWEVEVC [R40C],1.7
2,TYTYKLTDEEASRRAEDEWRNRGYDVRVRNNNGTWEVEVP [R40P],0.016
3,TYTYKLTDEEASRRAEDEWRNRGYDVRVRNNNGTWEVEVH [R40H],1.1
4,TYTYKLTDEEASRRAEDEWRNRGYDVRVRNNNGTWEVEVV [R40V],1.32
5,TYTYKLTDEEASRRAEDEWRNRGYDVRVRNNNGTWEVEVG [R40G],0.86
6,TYTYKLTDEEASRRAEDEWRNRGYDVRVRNNNGTWEVEVE [R40E],0.721
7,TYTYKLTDEEASRRAEDEWRNRGYDVRVRNNNGTWEVEVL [R40L],1.43
8,TYTYKLTDEEASRRAEDEWRNRGYDVRVRNNNGTWEVEVW [R40W],1.8
9,TYTYKLTDEEASRRAEDEWRNRGYDVRVRNNNGTWEVEVN [R40N],0.95
10,TYTYKLTDEEASRRAEDEWRNRGYDVRVRNNNGTWEVEVT [R40T],1.54
11,TYTYKLTDEEASRRAEDEWRNRGYDVRVRNNNGTWEVEVM [R40M],1.41
12,TYTYKLTDEEASRRAEDEWRNRGYDVRVRNNNGTWEVEVI [R40I],1.51
13,TYTYKLTDEEASRRAEDEWRNRGYDVRVRNNNGTWEVEVS [R40S],1.71
14,TYTYKLTDEEASRRAEDEWRNRGYDVRVRNNNGTWEVEVF [R40F],1.65
15,TYTYKLTDEEASRRAEDEWRNRGYDVRVRNNNGTWEVEVQ [R40Q],1.09
16,TYTYKLTDEEASRRAEDEWRNRGYDVRVRNNNGTWEVEVA [R40A],1.03
17,TYTYKLTDEEASRRAEDEWRNRGYDVRVRNNNGTWEVEVD [R40D],0.685
18,TYTYKLTDEEASRRAEDEWRNRGYDVRVRNNNGTWEVEVY [R40Y],1.59
19,TYTYKLTDEEASRRAEDEWRNRGYDVRVRNNNGTWEVEVK [R40K],1.29
20,TYTYKLTDEEASRRAEDEWRNRGYDVRVRNNNGTWEVVVR [E38V],1.61
21,TYTYKLTDEEASRRAEDEWRNRGYDVRVRNNNGTWEVNVR [E38N],0.56
22,TYTYKLTDEEASRRAEDEWRNRGYDVRVRNNNGTWEVHVR [E38H],1.02
23,TYTYKLTDEEASRRAEDEWRNRGYDVRVRNNNGTWEVYVR [E38Y],1.03
24,TYTYKLTDEEASRRAEDEWRNRGYDVRVRNNNGTWEVFVR [E38F],1.03

row,Variant,folding stability dG [kcal/mol]
1,TYTYKLTDEEASRRAEDEWRNRGYDVRVRNNNGTWEVSVR [E38S],1.23
2,TYTYKLTDEEASRRAEDEWRNRGYDVRVRNNNGTWEVWVR [E38W],0.84
3,TYTYKLTDEEASRRAEDEWRNRGYDVRVRNNNGTWEVAVR [E38A],0.691
4,TYTYKLTDEEASRRAEDEWRNRGYDVRVRNNNGTWEVTVR [E38T],1.71
5,TYTYKLTDEEASRRAEDEWRNRGYDVRVRNNNGTWEVQVR [E38Q],1.2
6,TYTYKLTDEEASRRAEDEWRNRGYDVRVRNNNGTWEVLVR [E38L],1.28
7,TYTYKLTDEEASRRAEDEWRNRGYDVRVRNNNGTWEVMVR [E38M],1.33
8,TYTYKLTDEEASRRAEDEWRNRGYDVRVRNNNGTWEVDVR [E38D],0.701
9,TYTYKLTDEEASRRAEDEWRNRGYDVRVRNNNGTWEVIVR [E38I],1.77
10,TYTYKLTDEEASRRAEDEWRNRGYDVRVRNNNGTWEVKVR [E38K],0.392
11,TYTYKLTDEEASRRAEDEWRNRGYDVRVRNNNGTWEVGVR [E38G],-0.74
12,TYTYKLTDEEASRRAEDEWRNRGYDVRVRNNNGTWEVRVR [E38R],0.772
13,TYTYKLTDEEASRRAEDEWRNRGYDVRVRNNNGTWEVEYR [V39Y],-0.431
14,TYTYKLTDEEASRRAEDEWRNRGYDVRVRNNNGTWEVELR [V39L],0.587
15,TYTYKLTDEEASRRAEDEWRNRGYDVRVRNNNGTWEVEAR [V39A],-0.517
16,TYTYKLTDEEASRRAEDEWRNRGYDVRVRNNNGTWEVERR [V39R],-0.789
17,TYTYKLTDEEASRRAEDEWRNRGYDVRVRNNNGTWEVECR [V39C],1.46
18,TYTYKLTDEEASRRAEDEWRNRGYDVRVRNNNGTWEVEMR [V39M],-0.536
19,TYTYKLTDEEASRRAEDEWRNRGYDVRVRNNNGTWEVEFR [V39F],0.048
20,TYTYKLTDEEASRRAEDEWRNRGYDVRVRNNNGTWEVEWR [V39W],-0.503
21,TYTYKLTDEEASRRAEDEWRNRGYDVRVRNNNGTWEVEHR [V39H],-0.712
22,TYTYKLTDEEASRRAEDEWRNRGYDVRVRNNNGTWEVETR [V39T],-0.975
23,TYTYKLTDEEASRRAEDEWRNRGYDVRVRNNNGTWEVEIR [V39I],1.41

# — the MegaScale stability set (Tsuboyama et al. 2023)
